The text below walks through data of patent US20230242592A1, “IDENTIFICATION OF […] PEPTIDES AND USES THEREOF” (priority 2020, published 2023).

In series [1] the test system is SARS-CoV-2 spike protein pseudotyped lentivirus. Kind of series: SARS-CoV-2 spike pseudotyped lentivirus infection of ACE2-HEK293 cells (luciferase). The class given is cell-based. Particulars: 0.33 uM.
Series [2] has as its target SARS-CoV-2 spike RBD (Severe acute respiratory syndrome coronavirus 2, UniProt P0DTC2).
Series [3] concerns the target interaction between RBD and the neutralizing antibody (Severe acute respiratory syndrome coronavirus 2, UniProt P0DTC2). The conditions noted are these: read-out: IC50 of inhibiting interaction between RBD and the neutralizing antibody.
The subject of series [4] is ACE2-HEK293 cells. Kind of series: Trypan blue toxicity in ACE2-HEK293 cells in the presence of virus. Particulars: different concentrations; viability ca. 50%.

Turning to ACE2, in series [1], the “inhibition of pseudotyped virus infection” value is reported as “virtually complete inhibition”. In addition, the “RMax, binding to RBD” value in series [2] was found to be 0.5785 ± 0.01557. Further, the Kd in series [2] (read-out: dissociation constant / binding affinity with RBD) is around 3 nM. The IC50 – broadly, the point on the concentration scale where inhibition reaches its midpoint – in series [3] was 30 to 35 nM. In series [4], the “change in cell viability in the presence of virus” value is on record as “did not result in statistically significant changes in cell viability”.
